According to paper PMC6546751:

Target: FITC-casein (fluorescein-labeled casein, Sigma #C0528) (bovine)
Test: not stated; apparent Kd of ClpB for casein in the presence of ATPγS (Supplementary Fig. 1d); method not given

**Q.** For “Escherichia coli ClpB K476C hyperactive middle-domain variant (from UniProt P63284 1-857) (enzyme)”, which Kd is on record?
**A.** Its Kd is 110 nM.

**Q.** “Escherichia coli ClpB, wild type (from UniProt P63284 1-857) (enzyme)” was tested. Which Kd did it give?
**A.** Its Kd is 130 nM.
